This note sets out measurements from patent publication US20240025992A1 (Janssen / Centocor, published 2024).

Experiment [1] addresses T1, recombinant human DLL3 (Example 9, construct not named) (human, UniProt Q9NYJ7 27-492, limits assumed).
T1 construct: also called DLL3 antigen
T1 sequence: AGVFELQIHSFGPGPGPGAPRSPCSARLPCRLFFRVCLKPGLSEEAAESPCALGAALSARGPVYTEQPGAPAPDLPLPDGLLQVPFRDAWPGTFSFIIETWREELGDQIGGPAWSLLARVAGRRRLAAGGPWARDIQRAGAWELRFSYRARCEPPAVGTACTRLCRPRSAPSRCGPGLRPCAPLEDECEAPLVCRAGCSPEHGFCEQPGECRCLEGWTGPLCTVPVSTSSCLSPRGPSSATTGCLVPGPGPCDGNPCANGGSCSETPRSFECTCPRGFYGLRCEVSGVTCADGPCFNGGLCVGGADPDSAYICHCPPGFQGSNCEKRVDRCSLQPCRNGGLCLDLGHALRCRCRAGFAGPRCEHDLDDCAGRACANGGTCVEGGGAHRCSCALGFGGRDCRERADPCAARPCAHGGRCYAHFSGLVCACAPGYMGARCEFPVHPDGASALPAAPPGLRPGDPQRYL
Nature of the experiment: SPR (Biacore T200), antibody captured by goat anti-Fc on a C1 chip, DLL3 titrated. (In general: In SPR one partner is held on a chip, and binding of the other changes the refractive index at the surface.)

Experiment [2] has as its target T2, human DLL3 on DLL3+ tumor cells (human, UniProt Q9NYJ7 27-618).
T2 sequence: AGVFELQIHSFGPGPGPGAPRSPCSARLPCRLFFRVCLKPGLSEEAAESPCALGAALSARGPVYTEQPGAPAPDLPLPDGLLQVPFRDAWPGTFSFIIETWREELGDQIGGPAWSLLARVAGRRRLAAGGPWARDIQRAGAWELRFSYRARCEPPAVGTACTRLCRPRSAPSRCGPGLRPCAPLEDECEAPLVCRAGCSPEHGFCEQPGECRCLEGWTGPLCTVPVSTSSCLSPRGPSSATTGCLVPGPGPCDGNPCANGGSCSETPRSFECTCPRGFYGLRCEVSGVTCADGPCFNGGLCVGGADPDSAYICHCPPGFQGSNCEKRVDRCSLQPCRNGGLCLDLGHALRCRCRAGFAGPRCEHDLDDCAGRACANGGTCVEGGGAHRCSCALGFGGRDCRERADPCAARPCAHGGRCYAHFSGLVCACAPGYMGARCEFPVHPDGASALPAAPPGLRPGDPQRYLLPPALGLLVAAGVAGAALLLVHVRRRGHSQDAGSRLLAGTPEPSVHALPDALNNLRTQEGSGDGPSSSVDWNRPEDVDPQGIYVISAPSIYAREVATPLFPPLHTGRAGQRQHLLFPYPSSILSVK
Nature of the experiment: cell-based or functional assay.

Experiment [3] has as its target T1, recombinant human DLL3 (Example 9, …). Nature of the experiment: SPR (Biacore T200), antibody captured by goat anti-Fc on a C1 chip, DLL3 titrated. This is another data set of the same source.
Experiment [4] addresses T3, human CD3 (CD3 epsilon as part of the T cell receptor complex) on cells (human, UniProt P07766 23-207).
T3 construct: also called CD3 on Jurkat cells; CD3 on human pan T cells
Nature of the experiment: flow cytometry on human pan T cells, antibody titrated 3-fold from 100 nM, AlexaFluor 647 anti-human secondary antibody, GEO Mean. On the technique in general: Flow cytometry measures light scatter and fluorescence of single cells or particles in a stream.

Read-outs that look alike come from different tables or passages of the source.

T3 sequence (P07766 23-207 limits assumed, one chain of several): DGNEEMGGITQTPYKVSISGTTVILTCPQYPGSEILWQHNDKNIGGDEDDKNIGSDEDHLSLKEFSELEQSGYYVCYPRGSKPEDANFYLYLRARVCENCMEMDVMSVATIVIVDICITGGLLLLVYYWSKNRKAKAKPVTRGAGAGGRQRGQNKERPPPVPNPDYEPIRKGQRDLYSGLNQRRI

B1: DL3B585 (bispecific antibody, human IgG1, lambda, L234A L235A)
scFv: DIQMTQSPSSLSASVGDRVTITCRASQGISNYLAWFQQKPGKAPKSLIYAASSLQSGVPSKFSGSGSGTDFTLTISSLQPEDFATYYCQQYNSYPYTFAQGTKLEIKGGSEGKSSGSGSESKSTGGSQVQLVQSGAEVKKPGASVKVSCKASGNTFTNYYIHWVRQAPGQGLEWMGIINPSGGSTSYAQKLQGRMTMTRDTSTSTVYMELSSLRSEDTAVYFCARQGPFIGDAFDIWGQGTMVTVSSEPKSSDKTHTCPPCPAPEAAGGPSVFLFPPKPKDTLMISRTPEVTCVVVSVSHEDPEVKFNWYVDGVEVHNAKTKPREEQYNSTYRVVSVLTVLHQDWLNGKEYKCKVSNKALPAPIEKTISKAKGQPREPQVYVLPPSREEMTKNQVSLLCLVKGFYPSDIAVEWESNGQPENNYLTWPPVLDSDGSFFLYSKLTVDKSRWQQGNVFSCSVMHEALHNHYTQKSLSLS
heavy: QVQLQQSGPRLVRPSQTLSLTCAISGDSVFNNNAAWSWIRQSPSRGLEWLGRTYYRSKWLYDYAVSVKSRITVNPDTSRNQFTLQLNSVTPEDTALYYCARGYSSSFDYWGQGTLVTVSSASTKGPSVFPLAPSSKSTSGGTAALGCLVKDYFPEPVTVSWNSGALTSGVHTFPAVLQSSGLYSLSSVVTVPSSSLGTQTYICNVNHKPSNTKVDKKVEPKSCDKTHTCPPCPAPEAAGGPSVFLFPPKPKDTLMISRTPEVTCVVVSVSHEDPEVKFNWYVDGVEVHNAKTKPREEQYNSTYRVVSVLTVLHQDWLNGKEYKCKVSNKALPAPIEKTISKAKGQPREPQVYVYPPSREEMTKNQVSLTCLVKGFYPSDIAVEWESNGQPENNYKTTPPVLDSDGSFALVSKLTVDKSRWQQGNVFSCSVMHEALHNHYTQKSLSLSPG
light: QSALTQPASVSGSPGQSITISCTGTSSNIGTYKFVSWYQQHPDKAPKVLLYEVSKRPSGVSSRFSGSKSGNTASLTISGLQAEDQADYHCVSYAGSGTLLFGGGTKLTVLGQPKAAPSVTLFPPSSEELQANKATLVCLISDFYPGAVTVAWKADSSPVKAGVETTTPSKQSNNKYAASSYLSLTPEQWKSHRSYSCQVTHEGSTVEKTVAPTECS
notes: DLL3 arm: DL3B279-LH-scFv-Fc; CD3 arm: CD3B376-Fab-Fc; also called CD3B376-Fab; DL3B279-LH-scFv
For orientation: Kd means a measure of binding affinity in units of concentration. On to B1, for which the dissociation constant Kd in experiment [1] and in experiment [3] was 0.024 nM each time. For the same molecule, the “Cytotoxicity (% Lysis), SHP-77, whole PBMCs, 1:1 ET ratio, 30 nM” value in experiment [2] stood at 58.1%.

B2: DL3B587 (bispecific antibody, human IgG1, kappa, L234A L235A)
scFv: B1 scFv
heavy: EVQLVESGGGLVKPGGSLRLSCAASGFTFSRYNMNWVRQAPGKGLEWVSSISTSSNYIYYADSVKGRFTFSRDNAKNSLDLQMSGLRAEDTAIYYCTRGWGPFDYWGQGTLVTVSSASTKGPSVFPLAPSSKSTSGGTAALGCLVKDYFPEPVTVSWNSGALTSGVHTFPAVLQSSGLYSLSSVVTVPSSSLGTQTYICNVNHKPSNTKVDKKVEPKSCDKTHTCPPCPAPEAAGGPSVFLFPPKPKDTLMISRTPEVTCVVVSVSHEDPEVKFNWYVDGVEVHNAKTKPREEQYNSTYRVVSVLTVLHQDWLNGKEYKCKVSNKALPAPIEKTISKAKGQPREPQVYVYPPSREEMTKNQVSLTCLVKGFYPSDIAVEWESNGQPENNYKTTPPVLDSDGSFALVSKLTVDKSRWQQGNVFSCSVMHEALHNHYTQKSLSLSPG
light: DIQMTQSPSSLSASVGDRVTITCRARQSIGTAIHWYQQKPGKAPKLLIKYASESISGVPSRFSGSGSGTDFTLTISSLQPEDFATYYCQQSGSWPYTFGQGTKLEIKRTVAAPSVFIFPPSDEQLKSGTASVVCLLNNFYPREAKVQWKVDNALQSGNSQESVTEQDSKDSTYSLSSTLTLSKADYEKHKVYACEVTHQGLSSPVTKSFNRGEC
notes: DLL3 arm: DL3B279-LH-scFv-Fc; CD3 arm: CD3W245-Fab-Fc; also called CD3W245-Fab; DL3B279-LH-scFv
As for B2, in experiment [4], the binding result is reported as “binds”. Besides, the dissociation constant (Kd) in experiment [1] was found to be 0.031 nM. Moreover, the “Cytotoxicity (% Lysis), SHP-77, whole PBMCs, 1:1 ET ratio, 30 nM” value in experiment [2] was found to be 83.3%.
